Results reported in publication PMC12804361.

Legend:
VcCap5 [1] = test: AUC; sedimentation velocity, apo VcCap5 at 0.8 mg/ml, 20 mM Tris-HCl pH 7.5, 200 mM NaCl, 55,000 rpm, 20 °C; c(s) fit in SEDFIT; monomer to dimer
VcCap5 [2] = test: AUC; sedimentation velocity, VcCap5 with 3'2'-cGAMP, 0.8 mg/ml, 20 mM Tris-HCl pH 7.5, 200 mM NaCl, 55,000 rpm, 20 °C; c(s) fit in SEDFIT; dimer to tetramer

Which stoichiometry N (VcCap5 [1]) does the source give for VcCap5 (enzyme) here?
The stoichiometry N was 2.

And the stoichiometry N (VcCap5 [2])?
The stoichiometry N was 4.
